Test [1] deals with neuromedin-B preferring receptor (NMB-R), human (human) (UniProt P28336). Briefly: displacement of 125I-universal ligand, human tumour sections. (Displacement assays read how much labelled ligand stays bound in the presence of the test substance.)
The target in test [2] is gastrin releasing peptide receptor (GRP-R), human (human) (UniProt P30550). The description is as above.

As usually defined, the IC50 is the point on the concentration scale where inhibition reaches its midpoint. Low readings indicate inhibition by little substance, high ones a need for much substance.

Sequence of gastrin releasing peptide receptor (GRP-R), human (human) (P30550 whole entry): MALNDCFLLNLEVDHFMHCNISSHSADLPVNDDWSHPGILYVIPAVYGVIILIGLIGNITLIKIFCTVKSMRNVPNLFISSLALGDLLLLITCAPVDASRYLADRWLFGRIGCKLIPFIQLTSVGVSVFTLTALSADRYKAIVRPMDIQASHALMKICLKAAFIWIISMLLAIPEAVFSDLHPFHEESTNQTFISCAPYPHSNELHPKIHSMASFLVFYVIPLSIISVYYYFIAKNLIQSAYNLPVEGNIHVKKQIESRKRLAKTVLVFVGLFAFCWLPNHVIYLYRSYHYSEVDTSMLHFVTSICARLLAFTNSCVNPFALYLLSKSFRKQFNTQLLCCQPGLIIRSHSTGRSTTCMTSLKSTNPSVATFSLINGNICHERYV
Sequence of neuromedin-B preferring receptor (NMB-R), human (human) (P28336 whole entry): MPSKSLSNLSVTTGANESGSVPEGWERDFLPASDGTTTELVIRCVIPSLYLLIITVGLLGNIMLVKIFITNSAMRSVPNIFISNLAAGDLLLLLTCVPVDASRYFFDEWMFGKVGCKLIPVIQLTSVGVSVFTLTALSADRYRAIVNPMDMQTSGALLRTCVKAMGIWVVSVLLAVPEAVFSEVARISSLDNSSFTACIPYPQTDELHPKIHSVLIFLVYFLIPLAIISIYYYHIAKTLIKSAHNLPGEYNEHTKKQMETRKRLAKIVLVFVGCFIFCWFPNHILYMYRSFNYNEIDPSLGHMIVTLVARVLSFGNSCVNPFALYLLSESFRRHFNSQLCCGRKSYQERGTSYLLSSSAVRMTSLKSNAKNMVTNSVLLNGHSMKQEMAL

Turning to “[DTyr^6, βAla^11, Phe^13, Nle^14]-BBN(6-14) (peptide)”, the values for the IC50 in test [1] and in test [2] were 0.8 nM and 0.7 nM, respectively.

The record behind these values is patent publication US20090175786A1.
